Measurements taken from publication doi:10.1101/748145 (bioRxiv, 2019).
Positions count from the first letter of the chain named. Names may count otherwise.

B1: LetB three-ring truncation mutant (rings 2-5 deleted), TM helix removed (domain or fragment)
chain: QDRGNTVTIDFMSADGIVPGRTPVRYQGVEVGTVQDISLSDDLRKIEVKVSIKSDMKDALREETQFWLVTPKASLAGVSGLDALVGGNYIGMMPGKGKEQDHFVALDTQPKYRLDNGSETAARAVGGQITLHAFDAGKLAVGMPIRYLGIDIGQIQTLDLITARNEVQAKAVLYPEYVQTFARGGTRFSVVTPQISAAGVEHLDTILQPYINVEPGRGNPRRDFELQEATITDSRYLDGLSIIVEAPEAGSLGIGTPVLFRGLEVGTVTGMTLGTLSDRVMIAMRISKRYQHLVRNNSVFWLASGYSLDFGLTGGVVKTGTFNQFIRGGIAFATPPGTPLAPKAQEGKHFLLQESEPKEWREWGTALPK
B2: LetB five-ring truncation mutant (rings 5 and 6 deleted), TM helix removed (domain or fragment)
chain: QDRGNTVTIDFMSADGIVPGRTPVRYQGVEVGTVQDISLSDDLRKIEVKVSIKSDMKDALREETQFWLVTPKASLAGVSGLDALVGGNYIGMMPGKGKEQDHFVALDTQPKYRLDNGDLMIHLQAPDLGSLNSGSLVYFRKIPVGKVYDYAINPNKQGVVIDVLIERRFTDLVKKGSRFWNVSGVDANVSISGAKVKLESLAALVNGAIAFDSPEESKPAEAEDTFGLYEDLAHSQRGVIIKLELPSGAGLTADSTPLMYQGLEVGQLTKLDLNPGGKVTGEMTVDPSVVTLLRENTRIELRNPKLSLSDANLSALLTGKTFELVPGDGEPRKEFVVVPGEKALLHEPDVLTLTLTAPESYGIDAGQPLILHGVQVGQVIDRKLTSKGVTFTVAIEPQHRELVKGDSKFVVNSRVDVKVGLDGVEFLGASASEWINGGIRILPGDKGEMKASYPLYANLEKALENSLSDLPTTITDSRYLDGLSIIVEAPEAGSLGIGTPVLFRGLEVGTVTGMTLGTLSDRVMIAMRISKRYQHLVRNNSVFWLASGYSLDFGLTGGVVKTGTFNQFIRGGIAFATPPGTPLAPKAQEGKHFLLQESEPKEWREWGTALPK
B3: LetB two-ring truncation mutant (rings 2-6 deleted), TM helix removed (domain or fragment)
chain: QDRGNTVTIDFMSADGIVPGRTPVRYQGVEVGTVQDISLSDDLRKIEVKVSIKSDMKDALREETQFWLVTPKASLAGVSGLDALVGGNYIGMMPGKGKEQDHFVALDTQPKYRLDNGDGLSIIVEAPEAGSLGIGTPVLFRGLEVGTVTGMTLGTLSDRVMIAMRISKRYQHLVRNNSVFWLASGYSLDFGLTGGVVKTGTFNQFIRGGIAFATPPGTPLAPKAQEGKHFLLQESEPKEWREWGTALPK
B4: LetB four-ring truncation mutant (rings 2-4 deleted), TM helix removed (domain or fragment)
chain: QDRGNTVTIDFMSADGIVPGRTPVRYQGVEVGTVQDISLSDDLRKIEVKVSIKSDMKDALREETQFWLVTPKASLAGVSGLDALVGGNYIGMMPGKGKEQDHFVALDTQPKYRLDNGNLEKALENSLSDLPTTTVSLSAETLPDVQAGSVVLYRKFEVGEVITVRPRANAFDIDLHIKPEYRNLLTSNSVFWAEGGAKVQLNGSGLTVQASPLSRALKGAISFDNLSGASASQRKGDKRILYASETAARAVGGQITLHAFDAGKLAVGMPIRYLGIDIGQIQTLDLITARNEVQAKAVLYPEYVQTFARGGTRFSVVTPQISAAGVEHLDTILQPYINVEPGRGNPRRDFELQEATITDSRYLDGLSIIVEAPEAGSLGIGTPVLFRGLEVGTVTGMTLGTLSDRVMIAMRISKRYQHLVRNNSVFWLASGYSLDFGLTGGVVKTGTFNQFIRGGIAFATPPGTPLAPKAQEGKHFLLQESEPKEWREWGTALPK
B5: LetB six-ring truncation mutant (ring 6 deleted), TM helix removed (domain or fragment)
chain: QDRGNTVTIDFMSADGIVPGRTPVRYQGVEVGTVQDISLSDDLRKIEVKVSIKSDMKDALREETQFWLVTPKASLAGVSGLDALVGGNYIGMMPGKGKEQDHFVALDTQPKYRLDNGDLMIHLQAPDLGSLNSGSLVYFRKIPVGKVYDYAINPNKQGVVIDVLIERRFTDLVKKGSRFWNVSGVDANVSISGAKVKLESLAALVNGAIAFDSPEESKPAEAEDTFGLYEDLAHSQRGVIIKLELPSGAGLTADSTPLMYQGLEVGQLTKLDLNPGGKVTGEMTVDPSVVTLLRENTRIELRNPKLSLSDANLSALLTGKTFELVPGDGEPRKEFVVVPGEKALLHEPDVLTLTLTAPESYGIDAGQPLILHGVQVGQVIDRKLTSKGVTFTVAIEPQHRELVKGDSKFVVNSRVDVKVGLDGVEFLGASASEWINGGIRILPGDKGEMKASYPLYANLEKALENSLSDLPTTTVSLSAETLPDVQAGSVVLYRKFEVGEVITVRPRANAFDIDLHIKPEYRNLLTSNSVFWAEGGAKVQLNGSGLTVQASPLSRALKGAISFDNLSGASASQRKGDKRILYASETAARAVTITDSRYLDGLSIIVEAPEAGSLGIGTPVLFRGLEVGTVTGMTLGTLSDRVMIAMRISKRYQHLVRNNSVFWLASGYSLDFGLTGGVVKTGTFNQFIRGGIAFATPPGTPLAPKAQEGKHFLLQESEPKEWREWGTALPK
B6: LetB L358N (periplasmic domain) (domain or fragment, E. coli, UniProt P76272 43-877, looked up)
chain: QDRGNTVTIDFMSADGIVPGRTPVRYQGVEVGTVQDISLSDDLRKIEVKVSIKSDMKDALREETQFWLVTPKASLAGVSGLDALVGGNYIGMMPGKGKEQDHFVALDTQPKYRLDNGDLMIHLQAPDLGSLNSGSLVYFRKIPVGKVYDYAINPNKQGVVIDVLIERRFTDLVKKGSRFWNVSGVDANVSISGAKVKLESLAALVNGAIAFDSPEESKPAEAEDTFGLYEDLAHSQRGVIIKLELPSGAGLTADSTPLMYQGLEVGQLTKLDLNPGGKVTGEMTVDPSVVTLLRENTRIELRNPKLSLSDANLSANLTGKTFELVPGDGEPRKEFVVVPGEKALLHEPDVLTLTLTAPESYGIDAGQPLILHGVQVGQVIDRKLTSKGVTFTVAIEPQHRELVKGDSKFVVNSRVDVKVGLDGVEFLGASASEWINGGIRILPGDKGEMKASYPLYANLEKALENSLSDLPTTTVSLSAETLPDVQAGSVVLYRKFEVGEVITVRPRANAFDIDLHIKPEYRNLLTSNSVFWAEGGAKVQLNGSGLTVQASPLSRALKGAISFDNLSGASASQRKGDKRILYASETAARAVGGQITLHAFDAGKLAVGMPIRYLGIDIGQIQTLDLITARNEVQAKAVLYPEYVQTFARGGTRFSVVTPQISAAGVEHLDTILQPYINVEPGRGNPRRDFELQEATITDSRYLDGLSIIVEAPEAGSLGIGTPVLFRGLEVGTVTGMTLGTLSDRVMIAMRISKRYQHLVRNNSVFWLASGYSLDFGLTGGVVKTGTFNQFIRGGIAFATPPGTPLAPKAQEGKHFLLQESEPKEWREWGTALPK
B7: LetB L359N (periplasmic domain) (domain or fragment, E. coli, UniProt P76272 43-877, looked up)
chain: B6 chain with N316L, L317N
B8: LetB V247N (periplasmic domain) (domain or fragment, E. coli, UniProt P76272 43-877, looked up)
chain: B6 chain with V205N, N316L
B9: LetB L355N (periplasmic domain) (domain or fragment, E. coli, UniProt P76272 43-877, looked up)
chain: B6 chain with L313N, N316L
B10: LetB L243N (periplasmic domain) (domain or fragment, E. coli, UniProt P76272 43-877, looked up)
chain: B6 chain with L201N, N316L
B11: LetB L246N (periplasmic domain) (domain or fragment, E. coli, UniProt P76272 43-877, looked up)
chain: B6 chain with L204N, N316L
B12: LetB periplasmic portion (residues 43-877) (domain or fragment, E. coli, UniProt P76272 43-877, looked up)
chain: B6 chain with N316L

Biological target: the molecule itself
Assay: negative stain EM

Stoichiometry N, 6:
B1
B2
B3
B4
B5
B6
B7
B8
B9
B10
B11

Biological target: the molecule itself
Assay: cryo-EM structure

Stoichiometry N, 6:
B12
